The record followed here is patent US20110239327A1, “Nematicidal Effects of Cysteine Proteinases and Methods of Use Thereof to Treat Nematode Infestation” (priority 2007, published 2011).

The test system of assay [1] is Heterorhabditis megidis. Briefly: In vitro effect on the beneficial nematode Heterorhabditis megidis. The format is cell-based. The method, then: (§1) Eggs of M. incognita race 1 from North Carolina State University, USA were collected from tomato-infected roots grown in a glasshouse at 23° C. in a 16:8 h light-dark regime. Eggs were extracted using 1% hypochlorite (NaClO) solution (Hussey and Barker, 1973) or by picking egg masses from tomato-infected roots. Juveniles (J2) were hatched from the eggs and egg masses in water. Heterodera glycines eggs were obtained from soil samples stored in Rothamsted-Research. Second stage juveniles (J2) were hatched from the eggs in water after 10 days. Pratylenchus penetrans were a gift from Dr. Deeren Anne-Marie from the Institute for Agricultural and Fisheries Research, Merelbeke, Belgium. The beneficial nematodes Steinernema feltiae and Heterorhabditis megidis were a gift from Dr. Paul Williams from Becker Underwood.
(§2) Control wells were set up which contained J2s and distilled water with 16 mM L-cysteine. Each enzyme concentration and the controls were set up in duplicate (i.e. n=2). The actual number of active J2s per well was counted with the aid of an Olympus inverted microscope, prior to the addition of the enzymes, and then the J2s were incubated in the dark at room temperature for 2 hs, 16 hs, 24 hs or 40 hr. The number of live and dead J2s per well was counted after each enzyme incubation. The same procedure was followed when setting up further experiments to compare the effects of these enzymes with Heterodera glycines J2, Pratylenchus penetrans, Steinernema feltiae and Heterorhabditis megidis.
(§3) The beneficial nematodes Hetorhabditis megidis and Steinernema feltiae were incubated with dilutions of actinidin, bromelain and pappain from papaya latex (see concentrations used in table 3). These nematodes reacted differentially to these cysteine proteinases (Tables 4 and 5). […] S. feltiae were dead at all concentrations of actinidin tested. […] After 16 hs of observation the enzyme solutions were diluted with water (to half of the initial concentrations) however, no change in nematode movement was observed after 24 hs.

In assay [2] the test system is Steinernema feltiae. Briefly: In vitro effect on the beneficial nematode Steinernema feltiae. The format is cell-based. The method, then:
as §1, §2, §3

The subject of assay [3] is M. incognita J2. Briefly: In planta bioassay, two soil applications: nematode infection of tomato roots. The settings on record: two soil applications of enzyme (250 μM papain, 2.2 μM bromelain, 3.3 mM actinidin as printed), soil 16% organic matter, 11 days. The format is in vivo, M. incognita on tomato plants. As for the experimental part: Oxamyl is supplied as 10% liquid Vydate. 125 μl of a solution 1000 fold dilution of 10% formulation (kindly supplied by DK from NIU) was applied to 5 g of the soil mixture with 16% organic matter, to give a partial nematicidal effect. Soil mixtures were wetted with PBS pH 7.2, 16 hrs prior nematode application of 1000 or 2000 M. incognita J2. Infected soil mixtures were treated with water (control) or 250 μM of active papain in 16 mM of L-cysteine or a combination of Vydate and 250 μM of active papain in 16 mM of L-cysteine. After 48 hs tomato seedlings one month old were added to the treated soils. After 11 days the roots were washed free of soil and chopped to approximately 2 mm pieces. The root pieces of each tomato plant was placed in muslin bags and stained with acid-fuchsin. The stained roots were examined under microscope and all the nematodes present in the roots were counted. […] After 48 hours tomato seedlings one month old were added to the treated soils and after 11 days post infection nematode development inside root tissues was assessed as described above.
The avermectins are macrocyclic lactones produced by the actinomycete Streptomyces avermitilis. […] After 48 hs tomato seedlings one month old were added to the treated soils and after 11 days post infection nematode development inside root tissues was assessed as described above. […]

The mark [4] stands for this setting: enzyme concentration A (Table 3): actinidin 3.3 mM, bromelain 2.2 mM, papain 250 uM.
[5] abbreviates: enzyme concentration B: actinidin 1.7 mM, bromelain 1.1 mM, papain 125 uM.
Where [6] appears, read: enzyme concentration C: actinidin 840 uM, bromelain 560 uM, papain 62.5 uM.

B1: actinidin (protein, UniProt P00785 127-380, looked up)
Actinidain: LPSYVDWRSAGAVVDIKSQGECGGCWAFSAIATVEGINKIVTGVLISLSEQELIDCGRTQNTRGCNVGYITDGFQFIINNGGINTEENYPYTAQDGECNVDLQNEKYVTIDTYENVPYNNEWALQTAVTYQPVSVALDAAGDAFKHYSSGIFIGPCGTAIDHAVTIVGYGTEGGIDYWIVKNSWDTTWGEEGYMRILRNVGGAGTCGIATMPSYPVKYNNQNHPKSYSSLINPPAFSMSNDGPVGVDDGQRYSA
notes: cysteine proteinase from kiwi fruit (Actinidia chinensis), Merops C01.007
B1: the “nematode motility or behaviour” value is given as “All paralysed” in assay [1] (setting [4]); “All paralysed” in assay [1] (setting [5]); “All paralysed” in assay [1] (setting [6]); “All dead” in assay [2] (setting [4]); “All dead” in assay [2] (setting [5]); “All dead” in assay [2] (setting [6]). The “nematode motility or behaviour” value in assay [2] (enzyme concentration D: actinidin 420 uM, bromelain 280 uM, papain 31 uM) is on record as “All dead”; in assay [2] (enzyme concentration E: actinidin 210 uM, bromelain 140 uM, papain 15 uM), “All dead”; in assay [2] (enzyme concentration F: actinidin 105 uM, bromelain 70 uM, papain 7.5 uM), “All dead”. The figures for the “effect on H. megidis” value in assay [1] (higher concentrations) and in assay [1] (lower concentrations) were “paralysed” and “only affected slightly”, respectively. The “state of S. feltiae” value in assay [2] (all concentrations of actinidin tested) is “dead”. The “reduction of nematode infection of plants” value in assay [3] is on record as 99%.
